Measurements as given in patent US20230055235.

Assays:
[1] = biological target: T1, PD-L1 (programmed death-ligand 1) (Homo sapiens?) (UniProt Q9NZQ7); assay: inhibition; settings: PD-1/PD-L1 binding ELISA
[2] = biological target: T1, PD-L1 (programmed death-ligand 1); assay: filter; settings: 37 C

T1 sequence (Q9NZQ7 19-238): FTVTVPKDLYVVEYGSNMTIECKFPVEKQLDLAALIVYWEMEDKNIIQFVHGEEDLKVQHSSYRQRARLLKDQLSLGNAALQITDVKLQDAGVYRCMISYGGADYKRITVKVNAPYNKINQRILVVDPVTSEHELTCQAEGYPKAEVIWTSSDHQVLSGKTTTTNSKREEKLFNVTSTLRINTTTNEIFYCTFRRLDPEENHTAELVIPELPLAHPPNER

## AAGTTTTTGATTGTACCTTAGTGC [PL009]
[1]; Bz-dU at every n
  IC50: 4.6 nM

## ATGAAAAGTTTTTGATTGTACCTTAGTGC [PL004]
[1]; Bz-dU at every n
  IC50: 7 nM

## ATGAAAAGTTTTTGATTGTACCTTAGTGCACTCAACAGTG [PL019]
[1]; Bz-dU at every n
  IC50: 15.3 nM

## ATGCCGCACGATCGCCCTATTTTGCGAGTTTAC [PL007]
[1]; Bz-dU at every n, anti-PD-L1 antibody 1.2 nM
  IC50: 4.7 nM

## GAGTGACCGTCTGCCTGATGAAAAGTTTTTGATTGTACCTTAGTGCACTCAACAGTGCAGCCACACCACCAGCC [PL001]
[1]; 5-(N-benzylcarboxamide)-2'-deoxyuridine (Bz-dU) at every n
  IC50: 6 nM
[1]; 5-(N-benzylcarboxamide)-2'-deoxyuridine (Bz-dU) at every n, repeat experiment
  IC50: 10.5 nM
[2]; 5-(N-benzylcarboxamide)-2'-deoxyuridine (Bz-dU) at every n, Bmax 0.07
  Kd: 1.1 nM

## GAGTGACCGTCTGCCTGCCATTTCCTGCTTGCTCTTCCTCCTTTATTTTTCACCTTTCAGCCACACCACCAGCC [PL029]
[2]; Bz-dU at every n, Bmax 0.10
  Kd: 243 nM

## GAGTGACCGTCTGCCTGTGTATGCCGCACGATCGCCCTATTTTGCGAGTTTAACTGACAGCCACACCACCAGCC [PL028]
[2]; Bz-dU at every n, Bmax 0.06
  Kd: 1.36 nM

## GAGTGACCGTCTGCCTGTGTATGCCGCACGATCGCCCTATTTTGCGAGTTTACTCACAGCCACACCACCAGCC [PL002]
[1]; Bz-dU at every n
  IC50: 31.3 nM
[2]; Bz-dU at every n, Bmax 0.05, 40 mM HEPES, 102 mM NaCl, 5 mM KCl
  Kd: 0.18 nM

## GAGTGACCGTCTGCCTGTTAAGCGGCTAAGTTTTTGATTGTACCTTAGTGCCCTTACCAGCCACACCACCAGCC [PL010]
[2]; Bz-dU at every n, Bmax 0.06
  Kd: 0.93 nM

## GCCTGATGAAAAGTTTTTGATTGTACCTTAGTGC [PL003]
[1]; Bz-dU at every n
  IC50: 6.3 nM

## GCCTGATGAAAAGTTTTTGATTGTACCTTAGTGCACTCAACAGTGC [PL017]
[1]; Bz-dU at every n
  IC50: 4 nM

## GCCTGATGAAAAGTTTTTGATTGTACCTTAGTGCACTCAACAGTGCAGCC [PL016]
[1]; Bz-dU at every n
  IC50: 3.3 nM

## GCCTGTGTATGCCGCACGATCGCCCTATTTTGCGAGTTTACTCACAGCC [PL005]
[1]; Bz-dU at every n
  IC50: 12.6 nM

## TGTATGCCGCACGATCGCCCTATTTTGCGAGTTTACTCA [PL006]
[1]; Bz-dU at every n
  IC50: 9.6 nM
